Source: patent US20100003264A1, “Reduction of Ophthalmalogic Neovascularization” (WASHINGTON UNIVERSITY, priority 2005, published 2010)
Entries after “also recorded” stand apart in the source; their conditions may differ.

Test system: choroidal neovascularization
Experiment: laser-induced choroidal neovascularization in mice, volume of the neovascular complex
Format: in vivo
Details: IL-10 knockout mice, IL-10 intravitreally on day of laser or three days after laser
Procedure: Volume of the neovascular complex was examined in IL-10 knockout mice. Knockout mice were purchased commercially (NCI, Frederick, Md.). All work was carried out per the ARVO guidelines for animal use in research. Rupture of Bruch's membrane with laser was used to initiate chorioretinal neovascularization in 5-7 week old mice as described in Nambu et al. ((2003) Invest Ophthalmol Vis Sci 44: 3650). Seven days after laser, the mice were anesthetized and perfused intraventricularly with fluorescein-labeled dextran. The mice were euthanized with CO2 inhalation and the eyes harvested for tissue processing. A dissecting microscope was used to remove the cornea and lens and gently separate the retina from the underlying choroid and sclera. Microscissors were used to make four radial incisions in the sclerochoroidal ‘eyecup’ in order to prepare choroidal flat mounts on glass slides. The tissues were incubated in 4% paraformaldehyde for 45 minutes and washed three times with 3% bovine serum albumin. […] The choroidal flat mounts were analyzed for presence of CNV by confocal microscopy. Extent of choroidal neovascularization was quantified by Metamorph™ imaging software. […]
Macrophages were used to proactively treat the formation of blood vessels in the eye. […] Choroidal neovascularization was analyzed on day 7. […]

B1: IL-10: cytokine produced by activated macrophages and some helper T cells; injected exogenously into eyes of IL-10 knockout mice (protein, UniProt P18893 19-178, looked up)
Interleukin-10: SRGQYSREDNNCTHFPVGQSHMLLELRTAFSQVKTFFQTKDQLDNILLTDSLMQDFKGYLGCQALSEMIQFYLVEVMPQAEKHGPEIKEHLNSLGEKLKTLRMRLRRCHRFLPCENKSKAVEQVKSDFNKLQDQGVYKAMNEFDIFINCIEAYMMIKMKS
B1 was tested, and the “choroidal neovascularization (volume of the neovascular complex)” value was “reversed the inhibition choroidal neovascularization; also recorded: increased new vessel formation” and the “choroidal neovascularization (volume of the neovascular complex)” value (listed as Exogenous IL-10) was “reversed the inhibition choroidal neovascularization”.
